Results taken from paper PMC6730887, “FKBP51 and FKBP12.6—Novel and tight interactors of Glomulin” (PLoS ONE, 2019).
Numbering of substitutions follows the chain as printed. In names and notes the source's numbering stands. Like-named read-outs stand apart in the source and are kept apart here.

B1: His-FKBP52FK1 (domain or fragment)
chain: GDRVFVHYTGWLLDGTKFDSSLDRKDKFSFDLGKGEVIKAWDIAIATMKVGEVCHITCKPEYAYGSAGSPPKIPPNATLVFEVELFEFK
B2: His-FKBP52-Strep (full length) (natural protein, UniProt Q02790 1-459, looked up)
chain: MTAEEMKATESGAQSAPLPMEGVDISPKQDEGVLKVIKREGTGTEMPMIGDRVFVHYTGWLLDGTKFDSSLDRKDKFSFDLGKGEVIKAWDIAIATMKVGEVCHITCKPEYAYGSAGSPPKIPPNATLVFEVELFEFKGEDLTEEEDGGIIRRIQTRGEGYAKPNEGAIVEVALEGYYKDKLFDQRELRFEIGEGENLDLPYGLERAIQRMEKGEHSIVYLKPSYAFGSVGKEKFQIPPNAELKYELHLKSFEKAKESWEMNSEEKLEQSTIVKERGTVYFKEGKYKQALLQYKKIVSWLEYESSFSNEEAQKAQALRLASHLNLAMCHLKLQAFSAAIESCNKALELDSNNEKGLFRRGEAHLAVNDFELARADFQKVLQLYPNNKAAKTQLAVCQQRIRRQLAREKKLYANMFERLAEEENKAKAEASSGDHPTDTEMKEEQKSNTAGSQSQVETEA
notes: FKBP52, full length; in pProEx-HTA, used as previously described; also called FKBP52FL; full-length FKBP52; source: E. coli BL21(DE3), purified (Ni-NTA, SEC)
B3: His-FKBP51FK1 (aa16-140) (domain or fragment)
chain: ATVAEQGEDITSKKDRGVLKIVKRVGNGEETPMIGDKVYVHYKGKLSNGKKFDSSHDRNEPFVFSLGKGQVIKAWDIGVATMKKGEICHLLCKPEYAYGSAGSLPKIPSNATLFFEIELLDFKGE
B4: His-FKBP51-Strep (full length) (natural protein, UniProt Q13451 1-457, looked up)
chain: MTTDEGAKNNEESPTATVAEQGEDITSKKDRGVLKIVKRVGNGEETPMIGDKVYVHYKGKLSNGKKFDSSHDRNEPFVFSLGKGQVIKAWDIGVATMKKGEICHLLCKPEYAYGSAGSLPKIPSNATLFFEIELLDFKGEDLFEDGGIIRRTKRKGEGYSNPNEGATVEIHLEGRCGGRMFDCRDVAFTVGEGEDHDIPIGIDKALEKMQREEQCILYLGPRYGFGEAGKPKFGIEPNAELIYEVTLKSFEKAKESWEMDTKEKLEQAAIVKEKGTVYFKGGKYMQAVIQYGKIVSWLEMEYGLSEKESKASESFLLAAFLNLAMCYLKLREYTKAVECCDKALGLDSANEKGLYRRGEAQLLMNEFESAKGDFEKVLEVNPQNKAARLQISMCQKKAKEHNERDRRIYANMFKKFAEQDAKEEANKAMGKKTSEGVTNEKGTDSQAMEEEKPEGHV
notes: FKBP51, full length; in pProEx-HTA, used as previously described; also called FKBP51FL; full-length FKBP51; source: E. coli BL21(DE3), purified (Ni-NTA, SEC)
B5: His-FKBP51FK1 (FD67/68DV) (domain or fragment)
chain: MTTDEGAKNNEESPTATVAEQGEDITSKKDRGVLKIVKRVGNGEETPMIGDKVYVHYKGKLSNGKKDVSSHDRNEPFVFSLGKGQVIKAWDIGVATMKKGEICHLLCKPEYAYGSAGSLPKIPSNATLFFEIELLDFKGE
B6: His-FKBP51FK1 (1-140) (domain or fragment)
chain: B5 chain with D67F, V68D
B7: His-FKBP51FK1 (F67V) (domain or fragment)
chain: B5 chain with D67V, V68D

Experiments:
[1] = target: T1, GST-Glmn (Glomulin) (UniProt Q92990 1-594); assay: FRET
T1 chain: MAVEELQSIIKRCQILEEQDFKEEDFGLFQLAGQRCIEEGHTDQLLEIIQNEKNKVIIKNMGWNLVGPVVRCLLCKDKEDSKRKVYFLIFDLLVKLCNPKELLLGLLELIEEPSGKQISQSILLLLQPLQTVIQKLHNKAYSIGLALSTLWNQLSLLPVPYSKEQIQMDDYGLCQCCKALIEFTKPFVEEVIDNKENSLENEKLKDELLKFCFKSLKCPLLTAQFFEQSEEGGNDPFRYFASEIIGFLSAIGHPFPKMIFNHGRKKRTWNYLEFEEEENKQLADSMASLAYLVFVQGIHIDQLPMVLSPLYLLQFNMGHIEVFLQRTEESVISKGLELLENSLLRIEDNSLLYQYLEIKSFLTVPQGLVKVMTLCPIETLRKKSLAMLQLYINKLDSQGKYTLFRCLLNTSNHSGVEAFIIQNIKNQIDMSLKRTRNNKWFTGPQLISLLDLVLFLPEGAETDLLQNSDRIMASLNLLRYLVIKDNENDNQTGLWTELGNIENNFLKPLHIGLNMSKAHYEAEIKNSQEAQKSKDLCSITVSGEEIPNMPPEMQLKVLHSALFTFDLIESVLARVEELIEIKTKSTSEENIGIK

[2] = target: T2, GST-Glmn (Glomulin) (UniProt Q92990 1-594); assay: AlphaScreen or HTRF; competitive HTRF: unlabelled FKBP titrated against 30 nM FKBP51FK1-5-MF and 30 nM GST-Glmn with Anti GST-Tb cryptate; 20 mM HEPES, 5% glycerol, 20 mM NaCl, 10 mM DTT, pH 8.0; room temperature, 1 h; conditions: both partners purified
T2 construct: Glomulin (Glmn); GST is detected by the anti-GST-Tb cryptate antibody in the HTRF assays; also called GST-tagged Glmn; FAP48; source: E. coli BL21(DE3), purified (glutathione beads, SEC)
T2 sequence (looked up): T1 chain

[3] = target: T1, GST-Glmn (Glomulin); assay: FRET
[4] = target: T1, GST-Glmn (Glomulin); assay: FRET

Binder	IC50 [1] [nM]	IC50 [3] [nM]	further results
B1	362	–	–
B2	–	–	fold better competition than its FK1 domain [2]: ~19 fold
B3	372	380	–
B4	96	–	fold difference in competition between full-length protein and the isolated FK506-binding domain [2]: 4 fold
B5	–	–	IC50 [4]: 15600 nM
B6	–	383	–
B7	–	880	–
